# Article PMC12607630, “ZapC crosslinks FtsZ filaments through a dual-binding mechanism modulated by the intrinsically disordered linker of FtsZ in Escherichia coli” (mBio, 2025)
# “And” between values parts separate entries of the source, which are not always exact repeats. Equal values may be shown once.
# B1: 6×His-ZapC (natural protein)
# chain: not shown
# notes: ZapC, FtsZ-associated protein of Escherichia coli; Construction of pSD323 is not described; also called His-tagged ZapC; source: E. coli, plasmid pSD323 (pQE80, Plac::6×His-ZapC), purified (Ni-NTA); not shown: His6, N-terminal, kept
# Biological target: T1, FtsZ (untagged, wild type) (Escherichia coli, UniProt P0A9A6 1-383)
# T1 construct: also called wild-type FtsZ; source: E. coli BL21(DE3), plasmid pLY17, purified (Ni-NTA); 6×His-SUMO tag removed with Ulp1; not shown: 6×His-SUMO, N-terminal, cleaved
# T1 sequence (looked up): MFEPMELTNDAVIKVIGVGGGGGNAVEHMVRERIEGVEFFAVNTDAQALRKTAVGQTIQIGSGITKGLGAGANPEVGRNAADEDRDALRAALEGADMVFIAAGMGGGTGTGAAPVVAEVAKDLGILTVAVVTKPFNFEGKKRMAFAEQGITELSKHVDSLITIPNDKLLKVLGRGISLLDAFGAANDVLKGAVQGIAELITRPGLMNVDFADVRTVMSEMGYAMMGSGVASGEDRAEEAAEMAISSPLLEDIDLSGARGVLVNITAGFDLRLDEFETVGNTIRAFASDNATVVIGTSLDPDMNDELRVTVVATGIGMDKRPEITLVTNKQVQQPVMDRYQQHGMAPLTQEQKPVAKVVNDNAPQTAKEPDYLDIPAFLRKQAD
# Test: BLI; 6×His-ZapC or its mutants (0.5 µM) loaded on Ni-NTA biosensors, untagged FtsZ or its variants in solution; Octet-Red96, 30°C, 1× Pol buffer (50 mM HEPES-NaOH pH 6.8, 50 mM KCl, 10 mM MgCl2); apparent Kd from the signal at the end of association against concentration, one-site fit; three repeats with mean (X) and SD
# Details: both partners purified
binder,measurement,value
B1,Kd,377 nM and 395 nM and 364 nM and 379 nM
